Molecular target: integrin alpha(IIb)beta(3) (UniProt P08514)
Test: cell-based or functional assay

B1: trimucrin variant RR (protein)
chain: EAGEECDCGSPENPCCDAATCKLRPGAQCAEGLCCDQCRFKKKRTICRRAKGDRRDDRCTGQSADCPRNRLYG
In the case of B1, the IC50: platelet aggregation (ADP-induced, platelet-rich plasma) is reported as 52.5 nM.
